From paper doi:10.1101/2020.12.15.422910 come the findings set out here.

For this assay, the target named is OsBOR3_(Δ1-642) (Oryza sativa). Nature of the assay: cryo-EM structure.

In general, stoichiometry N refers to the number of molecules, sites or subunits per partner or assembly. Consider OsBOR3_(Δ1-642) (domain or fragment), for which the stoichiometry N was 2.
